± gives the uncertainty stated by the source.
Assay: amyloid nucleation score (Sup35N fusion, yeast selection) (log enrichment); library NNK1; higher = more nucleation; inactive = no reads after selection
Outline: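 DiMSum was used to calculate nucleation scores as log enrichment of output over input reads, centred on the mode score of non-aggregating sequences. Sequences with fewer than 100 input reads were not scored. Input and output came from Illumina sequencing of plasmid inserts in psi-negative yeast expressing peptides of 20 random codons fused to Sup35N, induced 24 hours with 100 μM copper sulfate and then grown 7 days at 30°C on medium lacking adenine and uracil.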

Substance | amyloid nucleation score
DYNIVYYNLYNTYINNYQSF | 7.72 ± 0.048
LRVQWRQSTFN | 0.865 ± 0.48
SPTTRTCNLVKIQGTNLSHR | 1.36 ± 0.66
STDVEGRFTEMLSELMLYVD | inactive
LVNVGGQEIKVMR | 0.888 ± 0.2
IGVRRFFLWS | -0.753 ± 0.48
KNNIDIAFAV | -0.065 ± 0.98
ACVLTAKMAARRIHMWQGLF | -0.744 ± 0.84
LKKTYYSMYL | -0.045 ± 0.33
EIVSIS | -0.42 ± 1.2
MRFGLRYKALALRVFVEMTA | inactive
CRMGMLYEISQC | 0.743 ± 0.76
AGKGLAEARTYS | inactive
YIKAGLFGCYMVAGGAYNPV | 1.58 ± 0.31
NGFNKSRAQWFGSVSCSPEG | 0.174 ± 1.5
GGFFRHGEIDMYRCSSEWFL | 0.77 ± 0.97
HGVLCSWSRLKTRFDQNGIS | 0.616 ± 1.2
KAFWSLCYVERGRWYGAVNA | 0.128 ± 1
CDGPCALQS | 0.263 ± 0.51
SLPFTFSLVMMCFFVCVRGL | -1.76 ± 1.2
DPICFYYYFLVN | -2.01 ± 1.5
PQKLQGQIGCR | -0.549 ± 0.47
IHVPNYVDRELELRASNSSR | -0.298 ± 0.32
LLHVYYFFISWPMFCMVYM | -0.203 ± 0.72
SMVTQLRSDNLGHWANSESR | 0.108 ± 0.34

Substance | amyloid nucleation score
LVILVTIVDFMEDLSW | 0.74 ± 0.54
KRLDVKMVLPEVRFRLDVSL | 0.732 ± 0.27
GVRYQALFLSAVL | 0.09 ± 0.21
NMGIKVLSKYNVIYYSAGTP | 8.343 ± 0.048
SQVMSRLLGKFKLY | -0.609 ± 0.32
MSSRQVPGFLMIGSLFARCI | -0.639 ± 0.55
WLSRSSFMKLCSTKFPRWRL | -0.494 ± 1.1
LGMKSVKWL | 0.345 ± 0.53
CHRRMMNEWSGLKNVLFKKG | 0.791 ± 0.97
NLLFAVMLVFSRVQVVFNNG | -0.355 ± 0.25
FHFKFSSLLIVSFVLGFCLV | 0.027 ± 1.7
NCIGMFAIDLTKDQFRGDFR | 2.73 ± 0.31
FSQYVGDFYILMRVSFEFMK | 0.033 ± 0.44
INGMEYLEQKIEVL | 0.091 ± 0.42
VRMNCMDYQFNYLSLLLRTI | -0.401 ± 0.45
VCGRGKGDD | -0.107 ± 0.27
SLDCLLYTLVDCRAFSFYKN | -0.359 ± 0.39
STNIFSYATLSGFYTVTMIR | -0.618 ± 0.49
AHKWCVVCQTV | 0.338 ± 0.52
FNLALDRGR | -0.062 ± 0.32
LAFGFTSWS | 0.49 ± 0.38
GKTISGL | 0.239 ± 0.44
FDYLCSGGMSTILSCITFPL | -0.37 ± 0.9
VLYGLGSWLVRNIVLSYSVV | 0.106 ± 0.24
SNPRTFNDPSKPRV | 0.518 ± 0.35

Substance | amyloid nucleation score
HVTVNGWGAVSFLKNAKVVR | inactive
TSYGISLPAHP | 0.541 ± 0.75
DSGWRWCNRSTSVGNVNVMR | 0.171 ± 0.43
AWLNRSYRMLHPMWGVCMDM | 1.26 ± 0.85
FFIGFIL | 1.59 ± 0.21
ASYYQWLSLFFLTNRPFFGG | -0.809 ± 1.2
HGRIGLVWESGKCMTYLREV | 0.191 ± 0.37
SYTFSVYLVNWDGF | 2.43 ± 0.26
IIFHICRTGEDLTKSGCLSW | -0.494 ± 1.1
DPAHLSGWLLCSP | 0.624 ± 0.45
LMTLINPQFFSCSFLDDVSN | -0.362 ± 0.6
FVFHVGDDARGSCHKCRLWN | 0.665 ± 0.62
RFISCMFFKYIPLQCFVLGR | 0.548 ± 0.39
VNVGRKYGAVLGPGVNYGAK | 0.142 ± 0.29
NRCYMVYKFTV | -0.01 ± 0.33
CNSRNITT | -0.345 ± 0.67
VSNVRNSCLHLSARLYSTDL | -0.702 ± 0.91
VLSRLCLYVSVMSRDNKYGS | 2.38 ± 0.46
FNYYSA | -0.012 ± 0.48
ELGGVWN | 0.701 ± 0.58
IAREVSSVTVSPQEGTRWWG | 0.276 ± 0.3
MRHRCGHRSVPG | -0.118 ± 0.68
LRLTALGSSRPIKFEGNVGY | -0.532 ± 0.68
KVYTWVPPTMNYRMNLFIVR | 0.036 ± 0.19
NDNSVTILVCARVSTNGIFD | 3.38 ± 0.11

Substance | amyloid nucleation score
SLLTRDVYNRRAR | -0.562 ± 0.36
LFWASVSSWYDGEGVGKPDV | 0.134 ± 0.47
QYSHDRRFLPGMVHVRLFLE | 0.662 ± 0.38
SGRPLEYTDNGEQDRMWWQS | -0.044 ± 0.88
RCNSSSIEWTVCILFDLLFY | -0.122 ± 1
MEMLGGNRL | 1.23 ± 0.36
TVNCGQSSMWDFWTGLTECG | -0.22 ± 0.75
DMLFPAMRYAVHDVSVSAGN | 0.582 ± 0.64
GGSGDTTSCMLFKRIVRR | inactive
GMNPQTHAPVILTLGVQNIR | 2.2 ± 0.14
TCKTCLR | 0.858 ± 1.1
CVDRRV | 0.203 ± 0.56
YVSIYGQWVSSSCWTRRAYN | 0.415 ± 0.32
ASSCLNSRFGCQRFLGYLWL | 0.33 ± 0.39
SFSEICWVVGHYMNGFSQMR | 1.89 ± 0.47
LLAVCYVIF | 1.98 ± 0.24
HLRFYAYRGMGRPNFFLCFE | 0.183 ± 0.38
LIQLVDRVGGGVFTRDCDAI | -0.368 ± 0.47
SGIGSMWSQLKDSV | 0.136 ± 0.59
GSLLICEWLRFSRGRGVRSY | 1.11 ± 0.79
IRVSFCWSNLHNNYNSGRAT | 5.02 ± 0.085
CSLSSRNDLGCIMVLLYAWI | 0.605 ± 0.33
KWVHEIRSSMVCVYLAGNSR | 0.677 ± 0.79
AFYLN | -0.055 ± 0.34
FPDLYVWRCWKSQGHSWHGV | 0.573 ± 0.52

Substance | amyloid nucleation score
MSSVNWYANDLLSVLGIGSR | -0.202 ± 1.2
LSLYESLSNPLVRSYRLFCR | 0.517 ± 0.45
RMFCPHCDYLVSVFSWNPRC | 1.54 ± 0.57
TGYRSTYLNEVTPIRIMPHR | 0.905 ± 0.4
SLLFY | inactive
TPVTRIILVVVIRVPSGSGY | -1.03 ± 0.8
PQSFWNARCPCPLNRLNGVW | -0.474 ± 0.34
LNYTVQSDTWHLNWQP | 0.875 ± 0.93
ISEGVIRDMSNRVRGSMQEI | -0.175 ± 1.2
LMKGTYFIMCNLLAYECLTR | 2.78 ± 0.14
AAIAWVLN | 0.112 ± 0.58
FLFLPVSVSYYEDDSGHVLC | inactive
WAMREEVYSNSFSFMFALYW | 0.651 ± 0.36
VQSSFSFYDVVNSPGHRWTW | 0.14 ± 0.45
WTLRYRSARLVACMINTDEM | 1.68 ± 0.46
TSTLVMTNKMVLDSVE | -0.543 ± 0.25
NIINLHYKYLVADVWGLKMF | -0.008 ± 0.93
LCKRNVKCQFL | 0.192 ± 0.59
WFVNIEGREEWKYHKGCEPK | 0.758 ± 0.49
SMFYLSKFAVEFWRRMS | -0.097 ± 0.44
GNLVTCNSKYTRMEG | 0.166 ± 0.49
LWMHAGSGRIKLETGCGAKC | inactive
AEGCRIPGRQSYRYGDICPR | -0.373 ± 0.39
CYVLRSRSCLVFLMVYRGRV | 4.95 ± 0.073
DLLTWDCLEHDVDMLLVGPN | 0.152 ± 0.36

Substance | amyloid nucleation score
GFRQVSCHHHWGGNSWMCR | 0.717 ± 0.19
RSVRLMNRVSGWNMWWKDGT | -0.535 ± 1.2
LDTIVIVWRNCLRYKFHLCL | -0.057 ± 0.84
ITKSRLWHDWLTRRVMTTDC | -0.241 ± 1.4
FRGTVFSW | -0.26 ± 0.69
IPARTESDTRYMSMCGSNNQ | -0.317 ± 0.55
GSHSGVFRVIKYQILFEVGM | inactive
RPSPEGY | 1.37 ± 0.84
TKWTGVFIWSLKAD | -0.051 ± 0.84
TNFDGYLFRFHIWRGCLVT | 0.188 ± 1
TIINLGILLYYVGFFSIDPG | 5.866 ± 0.052
GKLVVFNFL | 8.483 ± 0.048
RHSFGLFVSRLVRFREDGYY | -0.508 ± 0.52
YDQGVPTDVLILIAIEHQLS | 5.53 ± 0.077
GDRKACSVRCRHATDKICAD | -0.309 ± 0.57
SFVIFCRKGNWEWDD | -0.671 ± 0.37
TFMAARQWLGPNYDGGQGLK | -0.2 ± 1
KLSVGLRYCRPATRTSAHVM | 0.271 ± 0.35
NVSLRFGSYPGVNVGSAFMV | -0.109 ± 0.53
CLVFWETECSA | -0.323 ± 0.29
MFMHELHMVDP | -0.873 ± 0.77
VYRVAKASM | -0.35 ± 1.9
TVIIWDENIWYFGAYAW | -1.53 ± 0.83
GFMICVADTGTANSSYVDVF | -0.201 ± 0.36
SACFVARSVVCDWGCAGYMF | 2.67 ± 0.28

Substance | amyloid nucleation score
TLVKVRSELYSGRDAYELVS | 0.035 ± 0.26
PKVFIEKAAIYIFAL | 0.029 ± 0.51
CIRREFSHDESDVNRSTWFI | 0.391 ± 0.71
SIYSFDHYGANRFLFYGGLS | 0.358 ± 0.62
PMMMKIVKHDIVFSLEFHLI | inactive
MFEFKKPD | -0.015 ± 0.73
WYRTRIQRRIFFNRAIYSTA | 0.368 ± 0.85
TGNHSEVTT | 0.233 ± 0.32
HEYNCRG | inactive
KLAIYFILAACSRNVVED | 0.768 ± 0.36
YNIVMMDS | 0.108 ± 0.36
YMCHKRAFV | 3.32 ± 0.12
AMEPKVWRDGLLPG | -0.471 ± 0.47
HTYSWKISDSSYPTFPELFW | 0.121 ± 0.39
VIQHIYAKDSNCSHLV | -0.529 ± 0.52
SYRSEGAMETLIDGRLSDLS | 1.16 ± 0.76
YSRYYVNVVWFLGKLRS | 0.012 ± 0.37
EYLSDDGI | 0.131 ± 0.28
NYRRQLSFLRLSGQDMLEGK | 0.184 ± 0.53
TWKAIWSEWYRTVPTGVLSN | 0.461 ± 0.42
VYNAPGCVNRSDLVV | -0.745 ± 2.4
TCYLSDSLASY | -0.328 ± 0.54
